According to patent US20180021430A1 (UNIVERSITAETSKLINIKUM FREIBURG, published 2018):
Each block holds one binder with its values, some of them ahead of it.

What was measured:
[1] = target: T1, recombinant CD40L, TNF homologous region of human CD40L (E108 to L261), produced as c-myc- and His-tag fusion … (human); experiment: solid phase competition assay: M7 against binding of CD40L to the immobilized I-domain
T1 construct: also called sCD40L; His-tag-CD40L fusion protein
T1 chain: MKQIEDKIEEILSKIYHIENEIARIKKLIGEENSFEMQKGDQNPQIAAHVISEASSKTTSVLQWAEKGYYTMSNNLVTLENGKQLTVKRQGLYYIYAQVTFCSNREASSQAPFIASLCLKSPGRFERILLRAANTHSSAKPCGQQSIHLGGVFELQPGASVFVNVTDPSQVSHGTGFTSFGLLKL
Procedure: (§1) Solid phase binding assay. […] A mixture of equal molarities of all peptides served as the positive control in this assay.
(§2) The recombinant Mac-1 I-domain was immobilized in 96-well plates (Nunc) in PBS at 4° C. overnight. […] Binding was quantified by addition of TMB-substrate (Pierce), colorimetric reaction at 450 nm. […] Binding of the recombinant Mac-1 I-domain was quantified by addition of anti-His-Biotin monoclonal antibody (Qiagen), HRP-coupled streptavidin (Pierce) and colorimetric reaction at 450 nm. […] Kd was estimated using a one-site binding hyperbola nonlinear regression model with the Software Prism (Graphpad). […] A mixture of equal molarities of all peptides served as positive control. Absorbance on BSA-coated wells served as negative control and was subtracted.

[2] = target: T2, recombinant Mac-1 I-domain, human Mac-1 (alpha M) amino residues R115 to S340, soluble His-tag fusion protein (human, UniProt P11215 131-356); experiment: solid phase binding assay, one-site binding hyperbola; I-domain on immobilized CD40L, BSA wells subtracted
T2 construct: range 115-340; ~28 kDa; also called alphaM I-domain; not shown: C-terminal His-tag from vector pET20b
Procedure: as §1, §2

T2 sequence (P11215 131-356): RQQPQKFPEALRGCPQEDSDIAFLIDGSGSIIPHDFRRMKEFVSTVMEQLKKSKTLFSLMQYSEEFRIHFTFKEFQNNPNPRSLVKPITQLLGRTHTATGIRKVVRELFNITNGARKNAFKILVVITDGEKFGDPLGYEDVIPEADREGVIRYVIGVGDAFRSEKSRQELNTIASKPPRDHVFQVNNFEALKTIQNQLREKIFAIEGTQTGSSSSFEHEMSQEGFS

IC50 [1]: ~4 µM
B1: peptide M7 (EQLKKSKTL) (peptide)
peptide: EQLKKSKTL
notes: linear fragment of the Mac-1 I-domain, E162-L170

Kd [2]: ~66 nM
B2: CD40L without a His-tag (Provitro) (ligand)
chain: MQKGDQNPQIAAHVISEASSKTTSVLQWAEKGYYTMSNNLVTLENGKQLTVKRQGLYYIYAQVTFCSNREASSQAPFIASLCLKSPGRFERILLRAANTHSSAKPCGQQSIHLGGVFELQPGASVFVNVTDPSQVSHGTGFTSFGLLKL
notes: Bought protein; also called CD40L (Provitro); immobilized CD40L
